Assay results published in paper PMC8467012.

B1: BCD090-P1 (VHH)
VHH: EVQLVQSGGGLVQPGGSLRLSCAASGRTSSKYAMGWFRQAPGKGTEFVATISWSDGSTYYADSVEGRFTISRDNAKNTVYLQMNSLKPEDTAVYYCAAAVDVLAGTFEYEYDYWGQGTLVTVSS
B2: BCD090-M2 (VHH)
VHH: QVQLVQSGGGLVQAGGSLRLSCAFSGRTFSMYTMGWFRQAPGKEREFVAANRGRGLSPDIADSVNGRFTISRDNAKNTLYLQMDSLKPEDTAVYYCAADLQYGSSWPQRSSAEYDYWGQGTTVTVSS

Biological target: ErbB3 receptor on cancer cells (human (endogenous in MCF-7, SK-BR-3, BT-474, Hep G2)) (UniProt P21860)
Sequence (P21860 20-1342): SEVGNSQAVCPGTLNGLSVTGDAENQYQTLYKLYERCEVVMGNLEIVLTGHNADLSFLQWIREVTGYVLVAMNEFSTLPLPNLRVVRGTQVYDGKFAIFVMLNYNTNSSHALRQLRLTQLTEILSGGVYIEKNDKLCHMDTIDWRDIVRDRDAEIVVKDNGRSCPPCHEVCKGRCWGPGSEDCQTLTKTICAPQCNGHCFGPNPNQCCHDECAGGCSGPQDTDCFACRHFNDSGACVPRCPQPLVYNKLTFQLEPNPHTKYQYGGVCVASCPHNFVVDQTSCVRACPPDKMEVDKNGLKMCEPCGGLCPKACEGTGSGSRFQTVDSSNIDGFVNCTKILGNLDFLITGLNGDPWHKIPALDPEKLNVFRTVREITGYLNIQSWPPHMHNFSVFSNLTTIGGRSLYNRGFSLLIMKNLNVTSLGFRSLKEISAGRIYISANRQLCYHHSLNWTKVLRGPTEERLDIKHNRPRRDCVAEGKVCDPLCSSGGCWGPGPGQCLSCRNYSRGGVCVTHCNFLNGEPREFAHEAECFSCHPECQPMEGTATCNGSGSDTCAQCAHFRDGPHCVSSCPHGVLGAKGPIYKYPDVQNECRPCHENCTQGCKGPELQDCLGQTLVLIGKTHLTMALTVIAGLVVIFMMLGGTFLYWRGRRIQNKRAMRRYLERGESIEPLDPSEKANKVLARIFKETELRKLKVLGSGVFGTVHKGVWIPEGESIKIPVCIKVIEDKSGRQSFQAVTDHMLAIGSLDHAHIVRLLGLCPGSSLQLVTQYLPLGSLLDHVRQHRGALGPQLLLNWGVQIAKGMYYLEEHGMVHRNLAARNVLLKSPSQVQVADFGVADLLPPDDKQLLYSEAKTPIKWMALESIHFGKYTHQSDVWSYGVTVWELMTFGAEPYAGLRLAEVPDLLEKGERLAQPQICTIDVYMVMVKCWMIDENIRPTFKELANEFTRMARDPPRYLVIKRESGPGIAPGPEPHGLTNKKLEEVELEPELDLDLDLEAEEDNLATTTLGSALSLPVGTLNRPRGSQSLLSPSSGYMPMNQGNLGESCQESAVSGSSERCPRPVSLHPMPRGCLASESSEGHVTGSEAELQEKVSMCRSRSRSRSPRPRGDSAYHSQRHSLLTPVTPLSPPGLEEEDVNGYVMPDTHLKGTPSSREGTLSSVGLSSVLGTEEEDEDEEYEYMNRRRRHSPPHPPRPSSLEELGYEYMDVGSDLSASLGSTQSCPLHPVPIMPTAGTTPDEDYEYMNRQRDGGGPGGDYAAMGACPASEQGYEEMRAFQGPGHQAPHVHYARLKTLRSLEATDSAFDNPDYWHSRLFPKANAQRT

| Binder | EC50 of inhibition of heregulin-driven proliferation of MCF-7 cells (MTS, 5 days, 50 ng/mL heregulin-1β) | EC50 of inhibition of proliferation of SK-BR-3 cells (MTS, 5 days, 50 ng/mL heregulin-1β) | EC50 of inhibition of heregulin-driven proliferation of MCF-7 cells (MTS, 5 days, 50 ng/mL heregulin-1β); blocks heregulin binding to ErbB3 | EC50 of inhibition of proliferation of SK-BR-3 cells (MTS, 5 days, 50 ng/mL heregulin-1β); blocks heregulin binding to ErbB3 |
| --- | --- | --- | --- | --- |
| B1 | 0.1 µg/mL | 15 µg/mL | – | – |
| B2 | – | – | 25 µg/mL | 3 µg/mL |
